IntAct's records for PubMed 27456980

B1: Lysosomal cobalamin transport escort protein LMBD1 (Homo sapiens), Q9NUN5 (parent)
chain: MATSGAASAELVIGWCIFGLLLLAILAFCWIYVRKYQSRRESEVVSTITAIFSLAIALITSALLPVDIFLVSYMKNQNGTFKDWANANVSRQIEDTVLYGYYTLYSVILFCVFFWIPFVYFYYEEKDDDDTSKCTQIKTALKYTLGFVVICALLLLVGAFVPLNVPNNKNSTEWEKVKSLFEELGSSHGLAALSFSISSLTLIGMLAAITYTAYGMSALPLNLIKGTRSAAYERLENTEDIEEVEQHIQTIKSKSKDGRPLPARDKRALKQFEERLRTLKKRERHLEFIENSWWTKFCGALRPLKIVWGIFFILVALLFVISLFLSNLDKALHSAGIDSGFIIFGANLSNPLNMLLPLLQTVFPLDYILITIIIMYFIFTSMAGIRNIGIWFFWIRLYKIRRGRTRPQALLFLCMILLLIVLHTSYMIYSLAPQYVMYGSQNYLIETNITSDNHKGNSTLSVPKRCDADAPEDQCTVTRTYLFLHKFWFFSAAYYFGNWAFLGVFLIGLIVSCCKGKKSVIEGVDEDSDISDDEPSVYSA
partner: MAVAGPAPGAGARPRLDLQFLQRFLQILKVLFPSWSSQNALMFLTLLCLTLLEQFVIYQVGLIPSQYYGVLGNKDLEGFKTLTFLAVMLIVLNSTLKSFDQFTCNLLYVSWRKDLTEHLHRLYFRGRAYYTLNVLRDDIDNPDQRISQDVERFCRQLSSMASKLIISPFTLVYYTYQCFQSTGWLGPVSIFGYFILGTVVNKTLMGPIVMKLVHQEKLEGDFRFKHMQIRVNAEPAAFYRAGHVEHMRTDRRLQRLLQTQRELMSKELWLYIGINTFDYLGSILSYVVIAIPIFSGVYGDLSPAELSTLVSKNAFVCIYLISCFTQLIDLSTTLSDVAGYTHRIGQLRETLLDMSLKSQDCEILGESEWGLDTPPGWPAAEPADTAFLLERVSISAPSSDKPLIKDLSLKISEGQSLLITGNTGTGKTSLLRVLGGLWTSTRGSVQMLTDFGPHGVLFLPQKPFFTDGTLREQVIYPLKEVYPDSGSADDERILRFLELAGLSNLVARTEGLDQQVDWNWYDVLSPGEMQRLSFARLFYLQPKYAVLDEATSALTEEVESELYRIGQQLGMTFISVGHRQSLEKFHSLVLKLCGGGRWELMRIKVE

Variants of: B1
Settings: with abcd4_human ABCD4, O14678

| Variant | effect of a mutation on the interaction |
| --- | --- |
| W294A;T295A;K296A;F297A | with no effect |
| Y232A;E233A;R234A;L235A | with no effect |
